Source: patent US5472872

Columns and labels:
[1] = target: T1, R.CviJI restriction endonuclease (Chlorella virus IL-3A) (UniProt P52283); experiment: cleavage_in_vitro
T1 sequence: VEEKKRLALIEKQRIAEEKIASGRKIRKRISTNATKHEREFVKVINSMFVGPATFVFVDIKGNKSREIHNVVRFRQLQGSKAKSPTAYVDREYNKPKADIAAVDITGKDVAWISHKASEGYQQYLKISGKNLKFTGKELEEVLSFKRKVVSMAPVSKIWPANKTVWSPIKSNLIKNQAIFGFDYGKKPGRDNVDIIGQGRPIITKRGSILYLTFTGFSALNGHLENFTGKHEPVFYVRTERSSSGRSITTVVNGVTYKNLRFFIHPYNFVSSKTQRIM

[2] = tested on: M.CviJI methyltransferase (Chlorella virus IL-3A); experiment: cell_activity; conditions: p710 in E. coli; SacI 90%, HindIII 25%; improved-translation plasmids appeared 100% resistant
[3] = CviJI*, 3 uncleaved, CviJI** 0 of 76 (Table 5)
[4] = CviJI*, 5 uncleaved, CviJI** 1 of 76 (Table 5)

Substance: GGCT (double strand) [GGCT site in pUC19 (normal PuGCPy)]
- activity (cleaved junctions of 200) ([1]; CviJI*, 0 uncleaved, CviJI** 12 of 76 (Table 5)): 13

Substance: AGCG (double strand) [AGCG site in pUC19 (relaxed R2 PuGCPu)]
- activity (cleaved junctions of 200) ([1]; CviJI*, 11 uncleaved, CviJI** 0 of 76 (Table 5)): 12

Substance: TGCG (double strand) [TGCG site in pUC19 (R3 PyGCPu)]
- activity (cleaved junctions of 200) [1, 3]: 0

Substance: TGCC (double strand) [TGCC site in pUC19 (relaxed R1 PyGCPy)]
- activity (cleaved junctions of 200) ([1]; CviJI*, 10 uncleaved, printed TOCC in Table 2, CviJI** 2 of 76 (Table 5)): 13

Substance: TGCT (double strand) [TGCT site in pUC19 (relaxed R1 PyGCPy)]
- activity (cleaved junctions of 200) [1, 4]: 10

Substance: CGCC (double strand) [CGCC site in pUC19 (relaxed R1 PyGCPy)]
- activity (cleaved junctions of 200) ([1]; CviJI*, 4 uncleaved, CviJI** 0 of 76 (Table 5)): 11

Substance: plasmid p710/pBMC5 (G/A)GC(T/C/G) sites
- activity (% resistance to HaeIII) [2]: 90

Substance: GGCC (double strand) [GGCC site in pUC19 (normal PuGCPy)]
- activity (cleaved junctions of 200) ([1]; CviJI*, 1 uncleaved, CviJI** 16 of 76 (Table 5)): 24

Substance: CGCA (double strand) [CGCA site in pUC19 (R3 PyGCPu)]
- activity (cleaved junctions of 200) ([1]; CviJI*, 12 uncleaved, CviJI** 0 of 76 (Table 5)): 0

Substance: AGCC (double strand) [AGCC site in pUC19 (normal PuGCPy)]
- activity (cleaved junctions of 200) ([1]; CviJI* (Mg, ATP, DTT), 1 uncleaved, CviJI** 13 of 76 (Table 5)): 23

Substance: GGCA (double strand) [GGCA site in pUC19 (relaxed R2 PuGCPu)]
- activity (cleaved junctions of 200) [1, 3]: 11

Substance: AGCA (double strand) [AGCA site in pUC19 (relaxed R2 PuGCPu)]
- activity (cleaved junctions of 200) [1, 4]: 13

Substance: AGCT (double strand) [AGCT site in pUC19 (normal PuGCPy)]
- activity (cleaved junctions of 200) ([1]; CviJI*, 0 uncleaved, CviJI** 25 of 76 (Table 5)): 35

Substance: GGCG (double strand) [GGCG site in pUC19 (relaxed R2 PuGCPu)]
- activity (cleaved junctions of 200) ([1]; CviJI*, 8 uncleaved, CviJI** 4 of 76 (Table 5)): 18

Substance: TGCA (double strand) [TGCA site in pUC19 (R3 PyGCPu)]
- activity (cleaved junctions of 200) ([1]; CviJI*, 19 uncleaved, CviJI** 0 of 76 (Table 5)): 0

Substance: CGCT (double strand) [CGCT site in pUC19 (relaxed R1 PyGCPy)]
- activity (cleaved junctions of 200) ([1]; CviJI*, 7 uncleaved, CviJI** 2 of 76 (Table 5)): 17

Substance: CGCG (double strand) [CGCG site in pUC19 (R3 PyGCPu)]
- activity (cleaved junctions of 200) ([1]; CviJI*, 27 uncleaved, CviJI** 0 of 76 (Table 5)): 0
